These results are taken from US20190315842A1 (DUKE UNIVERSITY, published 2019).

The EC50 is the midpoint of the concentration-response curve. The low end stands for greater potency, the high end for weaker potency.

Assay [1] has as its target T1, centromere B (CentB) (UniProt P07199 2-599).
T1 sequence (looked up): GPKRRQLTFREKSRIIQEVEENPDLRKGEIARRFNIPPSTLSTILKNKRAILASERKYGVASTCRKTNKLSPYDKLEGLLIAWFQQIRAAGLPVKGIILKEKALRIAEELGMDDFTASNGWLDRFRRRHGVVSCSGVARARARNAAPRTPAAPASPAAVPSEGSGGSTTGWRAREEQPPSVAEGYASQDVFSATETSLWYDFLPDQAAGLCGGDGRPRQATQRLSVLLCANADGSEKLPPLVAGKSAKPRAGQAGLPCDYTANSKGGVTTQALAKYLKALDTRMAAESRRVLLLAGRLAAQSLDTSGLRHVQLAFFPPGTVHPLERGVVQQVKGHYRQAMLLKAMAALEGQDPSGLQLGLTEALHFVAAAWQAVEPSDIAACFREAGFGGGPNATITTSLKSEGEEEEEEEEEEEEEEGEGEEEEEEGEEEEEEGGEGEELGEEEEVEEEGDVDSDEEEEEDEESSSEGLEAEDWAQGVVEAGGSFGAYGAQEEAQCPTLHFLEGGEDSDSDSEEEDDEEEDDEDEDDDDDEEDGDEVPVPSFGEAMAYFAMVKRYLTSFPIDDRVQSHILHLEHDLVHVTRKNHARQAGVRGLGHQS
The assay is described as follows: AtheNA Multi-Lyte ANA, Ab at 50 ug/ml.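 Also: monoclonal antibodies probed against a nuclear autoantigen panel (SSA, SSB, Sm, RNP, Scl-70, Jo-1, dsDNA, CentB, histones), with anti-HIV 4E10 and palivizumab as control antibodies.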

In assay [2] the target is T1, centromere B (CentB). The assay is described as follows: AtheNA Multi-Lyte ANA, Ab at 6.25 ug/ml.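 Also: monoclonal antibodies screened for reactivity against a panel of nuclear autoantigens, with an anti-HIV and an anti-RSV monoclonal antibody serving as controls.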
Assay [3] concerns the target T2, systemic lupus erythematosus autoantigen SSB (UniProt P05455 1-408, limits assumed).
T2 sequence (looked up): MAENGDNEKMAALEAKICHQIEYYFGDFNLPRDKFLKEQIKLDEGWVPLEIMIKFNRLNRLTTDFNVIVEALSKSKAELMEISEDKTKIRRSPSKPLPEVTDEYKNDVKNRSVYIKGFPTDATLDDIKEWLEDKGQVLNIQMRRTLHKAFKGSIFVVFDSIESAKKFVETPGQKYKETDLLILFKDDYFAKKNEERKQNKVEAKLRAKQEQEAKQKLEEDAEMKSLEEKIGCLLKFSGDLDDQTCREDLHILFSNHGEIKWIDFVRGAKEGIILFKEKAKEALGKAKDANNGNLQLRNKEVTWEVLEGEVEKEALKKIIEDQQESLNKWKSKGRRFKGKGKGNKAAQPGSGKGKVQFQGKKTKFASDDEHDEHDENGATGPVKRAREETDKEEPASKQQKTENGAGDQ
The assay can be described thus: AtheNA Multi-Lyte ANA, Ab at 6.25 ug/ml.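 Also: monoclonal antibodies screened for reactivity against a panel of nuclear autoantigens, with an anti-HIV and an anti-RSV monoclonal antibody serving as controls.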

In assay [4] the target is T1, centromere B (CentB). The assay is described as follows: AtheNA Multi-Lyte ANA, Ab at 12.5 ug/ml.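 Also: monoclonal antibodies screened for binding to a panel of nuclear autoantigens (SSA, SSB, Sm, RNP, Scl-70, Jo-1, dsDNA, CentB, histones), with anti-HIV and anti-RSV antibodies as controls.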
Assay [5] concerns the target T2, systemic lupus erythematosus …. The assay can be described thus: AtheNA Multi-Lyte ANA, Ab at 12.5 ug/ml.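 Also: monoclonal antibodies screened for binding to a panel of nuclear autoantigens (SSA, SSB, Sm, RNP, Scl-70, Jo-1, dsDNA, CentB, histones), with anti-HIV and anti-RSV antibodies as controls.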
In assay [6] the target is systemic lupus erythematosus autoantigen SSA. The assay can be described thus: AtheNA Multi-Lyte ANA, Ab at 25 ug/ml.
Assay [7] addresses ribonucleoprotein (RNP). The assay is described as follows: AtheNA Multi-Lyte ANA, Ab at 25 ug/ml.
Assay [8] has as its target T3, histidine-tRNA ligase (Jo-1) (UniProt P12081 2-509).
T3 sequence (looked up): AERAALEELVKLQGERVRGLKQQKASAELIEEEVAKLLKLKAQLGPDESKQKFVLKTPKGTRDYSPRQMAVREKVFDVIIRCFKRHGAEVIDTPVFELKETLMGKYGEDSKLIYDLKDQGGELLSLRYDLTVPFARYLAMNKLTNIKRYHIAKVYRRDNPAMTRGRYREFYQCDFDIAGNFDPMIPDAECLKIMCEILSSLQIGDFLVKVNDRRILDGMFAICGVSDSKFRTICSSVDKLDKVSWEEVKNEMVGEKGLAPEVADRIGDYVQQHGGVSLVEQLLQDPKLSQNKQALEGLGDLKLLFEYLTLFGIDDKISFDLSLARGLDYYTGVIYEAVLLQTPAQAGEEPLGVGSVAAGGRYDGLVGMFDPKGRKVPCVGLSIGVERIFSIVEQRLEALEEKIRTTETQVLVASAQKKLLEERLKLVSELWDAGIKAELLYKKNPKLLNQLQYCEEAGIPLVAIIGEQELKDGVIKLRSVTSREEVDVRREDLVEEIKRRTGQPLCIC
The assay can be described thus: AtheNA Multi-Lyte ANA, Ab at 25 ug/ml.

Assay [9] addresses T4, Sm (sphingomyelin).
T4 construct: in an ANA panel of nuclear antigens Sm is usually the Smith ribonucleoprotein antigen; Kept, but see recheck
The assay is described as follows: AtheNA Multi-Lyte ANA, Ab at 25 ug/ml.

The target of assay [10] is T5, 15-mer peptide GPPPPIDNGDITSFP (SEQ ID NO: 114) (human).
T5 construct: Immobilized for SPR; also called parent peptide
T5 peptide: GPPPPIDNGDITSFP
The assay is described as follows: assay and antigen not given; Example 10, epitope mapping on the 15-mer peptide.

B1: Ab7962/293i (antibody, V domains shown)
VH: LVESGGGLVQPGGSLRLSCAASGFTFSSYEMNWVRQAPGKGLEWVSYISSSGSTIYYADSVKGRFTISRDNAKNSLYLQMNSLRAEDTAVYYCARVEQLAPSPYMDVWGKGTTVTVSS
VL: MTQSLDSLTVSLGERATINCKSSQSLLYTSNNKNYLAWYQQKSGQPPKLLIYWASIRDSGVPDRFSGSGSATDFTLTINNLQAEDVAVYFCQQYYKTPLTFGGGTKVEVR
notes: Recombinant human antibody with IgG1 heavy chain backbone and kappa light chain constant (IgM in the donor B cell); they begin at LVESGGG and MTQSL; also called clone 27; pH007962/pK005996
Turning to B1, the AtheNA signal in assay [1] is 3; in assay [2] it was 1; in assay [3], 1; in assay [4], 2; in [5], 5.

B2: Ab7968 (antibody, IgG1, V domains shown)
VH: LVESGGGVVQPGRSLRLSCAASGFTFSRYGMHWVRQAPGKGLEWVAVMSYDGSTKYYADSVKGRFAISRDNPKNTLFLQMNSLRPDDTAVYYCAKGGAAAAVMDVWGKGTTVTVSS
VL: MTQSPDSLTVSLGERATISCKSSQRLLYSSNNKNYLAWYQQKPGQPPKLLMYWASTRESGVPDRFSGSGSGTDFSLTISSLQAEDVAVYYCQQYYNPPWTFGQGTKVEVK
notes: Recombinant human antibody with IgG1 heavy chain backbone and kappa light chain constant; they begin at LVESGGG and MTQSP; also called mAb 7968; mAb7968
Regarding B2, the AtheNA signal in assay [6] turned out to be 8; in assay [7], 8; in assay [8], 3; in assay [9], 5; in assay [3] it was 7; in assay [5], 12. The same molecule had an EC50 in assay [10] of 7.98 ng/mL.

B3: Ab7957/293i (antibody, IgG1, V domains shown)
VH: LVESGGGVVPPGKSLRLSCAASGFTFSLYGIHWVRQAPGKGLEWVAVISYDGNTKYYTDSVKGRFTISRDNAKNTIYLQMNSLRLDDTAVYYCAKGAANSATFDFWGRGTMVTVSS
VL: MTQSPDSLTLSLGERATINCRSSRTVLYRSNNKNYLAWYQHKPGQPPKLLMSWASTRETGVPDRFSGSGSGTHFTLTITSLQPEDVAVYYCQQYYSPPWTFGQGTKVEIR
notes: Recombinant human antibody with IgG1 heavy chain backbone and kappa light chain constant; they begin at LVESGGG and MTQSP; also called Ab7957i; mAb 7957
With B3, the AtheNA signal in assay [1] came to 4; in [6], 11; in assay [7], 4; in [8] it was 4; in [9], 3; in assay [2] it was 2. In assay [4], this molecule displayed an AtheNA signal of 2. Also, the concentration for a half-maximal effect (EC50) in assay [10] turned out to be 9.08 ng/mL.
